Data taken from patent publication US20240247066A1 (published 2024).

Key:
[1] = biological target: NY-ESO1/A2 (;human, UniProt A*02:01, biotin on the biotinylation tag (BirA)); experiment: SPR
[2] = biological target: Trp2/H-2Kb (;mouse, biotin on the biotinylation tag (BirA)); experiment: SPR

Kd [1] [nM] | Kd [2] [nM] | Binder
2 | – | N5 (scFv) EVQLLESGGGLVQPGGSLRLSCAASGFTFSTYQMSWVRQAPGKGLEWVSGIVSSGGSTAYADSVKGRFTISRDNSKNTLYLQMNSLRAEDTAVYYCAGELLPFYGMDYWGQGTTVTVSQSELTQPRSVSGSPGQSVTISCTGTLRDVGGYNYVSWYQQHPGKAPKLIIHDVIERSSGVPDRFSGSKSGNTASLTISGLQAEDEADYYCWSAAMAYGVFGTGTDVTVL
– | 2.5 | IgG2a #13 (antibody, V domains shown) VH: EVLLQQSGPELVKPGASVKIPCKASGYTFTDYYMDWVKQSHGKSLEWIGLINPNNGGTVYNQKFKGKATLTVDKSSSAAYMEVRSLTSEDTAVYYCARKPYTGHPAWFAYWGQGTLVTVSA VL: DIQVTQSSSSFSVSLGDRVTITCKASEDIYNRLAWYQQKPGNAPRLLISGATSLETGVPDRFSGSGSRKDYTLIITSLQTEDVATYYCQQYYAFPLTFGAGTKLELK
